# What was measured:
# [1] = Specific activity of ribonucleoside diphosphate conversion enzyme solutions (TLC, UV 260 nm); format: biochemical; details: 1 mM uridine diphosphate, 30° C., pH 7.0, with the co-substrate of each enzyme
# Method: Reaction solution (2) was prepared by adding 10 μL of 1 M sucrose aqueous solution and 10 μL of sucrose synthase aqueous solution (D7-1) to 1 mL of aqueous solution R (50 mM phosphate buffer (pH of 7.0) containing 100 mM sodium chloride, 10 mM magnesium chloride, and 1 mM uridine diphosphate). Three such reaction solutions (2) were prepared and allowed to react at 30° C. for 5 minutes, 10 minutes, and 15 minutes, respectively. As for the amount of compound (C-7) as the reaction product (uridine diphosphate-glucose), the reaction product was developed on TLC (PEI-Cellulose plate available from Sigma-Aldrich Corporation, hereinafter the same) (developing solvent: an aqueous solution containing 1 M LiCl and 1 M formic acid, hereinafter the same), and detected with a UV light (260 nm). The specific activity of sucrose synthase aqueous solution (D7-1) was calculated to be 0.3 U/μL from the relationship between the yield of compound (C-7) and the reaction time.
# Reaction solution (3) was prepared by adding 0.1 mg of reduced thioredoxin and 10 μL of ribonucleotide diphosphate reductase aqueous solution (D6-1) to 1 mL of aqueous solution R. Three such reaction solutions (3) were prepared and allowed to react at 30° C. for 5 minutes, 10 minutes, and 15 minutes, respectively. As for the amount of compound (C-6) as the reaction product (deoxyuridine diphosphate), the reaction product was developed on TLC and detected with a UV light (260 nm). The specific activity of ribonucleotide diphosphate reductase aqueous solution (D6-1) was calculated to be 0.3 U/μL from the relationship between the yield of compound (C-6) and the reaction time.
# Reaction solution (4) was prepared by adding 10 μL of 1 M monopotassium phosphoenolpyruvate aqueous solution (available from Wako Pure Chemical Industries, Ltd.) and 10 μL of pyruvate kinase aqueous solution (D4-1-1) to 1 mL of aqueous solution R. Three such reaction solutions (4) were prepared and allowed to react at 30° C. for 5 minutes, 10 minutes, and 15 minutes, respectively. For the amount of compound (C-4) as the reaction product (uridine triphosphate), the reaction product was developed on TLC and detected with a UV light (260 nm). The specific activity of pyruvate kinase aqueous solution (D4-1-1) was calculated to be 0.3 U/μL from the relationship between the yield of compound (C-4) and the reaction time.
# Reaction solution (5) was prepared by adding 10 μL of nucleotidase aqueous solution (D3-1) to 1 mL of aqueous solution R. Three such reaction solutions (5) were prepared and allowed to react at 30° C. for 5 minutes, 10 minutes, and 15 minutes, respectively. For the amount of compound (C-3) as the reaction product (uridine monophosphate), the reaction product was developed on TLC and detected with a UV light (260 nm). The specific activity of nucleotidase aqueous solution (D3-1) was calculated to be 0.3 U/μL from the relationship between the yield of compound (C-3) and the reaction time.
# Reaction solution (6) was prepared by adding 1 mg of polyuridine (product name “polyuridylic acid potassium salt” available from Sigma-Aldrich Corporation) and 10 μL of polyribonucleotide nucleotidyltransferase aqueous solution (D5-1) to 1 mL of aqueous solution R. Three such reaction solutions (6) were prepared and allowed to react at 30° C. for 5 minutes, 10 minutes, and 15 minutes, respectively. […]
# [2] = Enzyme activity ratio (Y1)=Vmax1/Vmax2 of conversion enzyme (Lineweaver-Burk); format: biochemical; details: each
# Excerpt: In the present invention, in the case where ribonucleoside diphosphate conversion enzyme (D) is used, an enzyme activity ratio (Y1) calculated from the following formula (1) using enzyme activity Vmax1 and enzyme activity Vmax2 described below is preferably not lower than 0.1 in terms of efficient polysaccharide production and efficient use of the substrate (ribonucleoside diphosphate-monosaccharide (A)). Enzyme activity ratio (Y1)=Vmax1/Vmax2 (1) • Enzyme activity Vmax1: the enzyme activity of ribonucleoside diphosphate conversion enzyme (D) on ribonucleoside diphosphate. • Enzyme activity Vmax2: the enzyme activity of ribonucleoside diphosphate conversion enzyme (D) on ribonucleoside diphosphate-monosaccharide (A).
# An enzyme reaction solution (II) containing specific amounts of substrate (ribonucleoside diphosphate or uridine diphosphate-monosaccharide (A)), enzyme (polysaccharide synthase (B) or ribonucleoside diphosphate conversion enzyme (D)), pH adjuster (K), and water is prepared, which is adjusted to a specific temperature and a specific pH. • Phosphate-containing compound (F) is added, if necessary, to the enzyme reaction solution (II) if the enzyme to be used is (D4). Reducing agent (d6) is added if the enzyme is (D6), and raw material (d7) of nucleotide sugar is added if the enzyme is (D7).
# After preparation of the enzyme reaction solution (II), it is allowed to stand for enzyme reaction for 1 minute to 100 hours. Next, the amount (X) of the reaction product obtained from the reaction is measured to determine the initial enzyme reaction velocity v. Likewise, the initial enzyme reaction velocity v is determined, using the enzyme reaction solution (II) having a different substrate concentration. A Lineweaver-Burk plot is generated from the above-obtained initial enzyme reaction velocity v and substrate concentration, and the enzyme activity Vmax is determined therefrom.
# The enzyme activity Vmax (M/s) is determined using Lineweaver-Burk plot derived from Michaelis-Menten kinetics. […]
# In the above measurement, the result determined using ribonucleoside diphosphate conversion enzyme (D) as an enzyme and ribonucleoside diphosphate as a substrate represents Vmax1, and the result determined using ribonucleoside diphosphate conversion enzyme (D) as an enzyme and ribonucleoside diphosphate-monosaccharide (A) as a substrate represents Vmax2. In the case where two or more types of ribonucleoside diphosphate-monosaccharide (A) are used, Vmax2 is determined for each ribonucleoside diphosphate-monosaccharide (A). The enzyme activity ratio (Y1) is also determined for each type from formula (1) using each Vmax2. […]
# Enzyme reaction solution (II-1) was prepared by adding the following to 1 mL of aqueous solution P (50 mM phosphate buffer (pH of 7.0) containing 100 mM sodium chloride and 10 mM magnesium chloride): a substrate (uridine diphosphate) to a concentration of 0.5 mM in the solution, sucrose (available from Wako Pure Chemical Industries, Ltd.) to a concentration of 100 mM in the solution, and 1 μL of sucrose synthase aqueous solution (D7-1). […] Enzyme reaction solution (II-1) was allowed to stand at 30° C. for enzyme reaction for 30 minutes while measuring the amount of the reaction product (uridine diphosphate-glucose) using HPLC at 5-minute intervals, and the initial enzyme reaction velocity v was calculated. […]
# [3] = Vmax2 substrates UDP-glucuronic acid, -N-acetylglucosamine, -N-acetylgalactosamine, -glucose, -mannose, -glucosamine
# [4] = Vmax2 substrates uridine diphosphate-glucuronic acid and uridine diphosphate-N-acetylglucosamine
Molecule,specific activity [1] [U/μL],"enzyme activity ratio (Y1) of each type [2, 3]","enzyme activity ratio (Y1) of each type [2, 4]"
"arginine kinase aqueous solution (D4-1-3): arginine kinase, SEQ ID NO: 9, derived from Toxoplasma gondii (protein, listed as Toxoplasma gondii, aqueous solution) MLSAASPALARKSFDFRGSALRHFSSSGGHRGSSDTKISPGHSDKSGEPLDLPVFTSTKQIATIGPASWDYEEIERLFLAGVDVFRLNMSHGLLTEKHQQLLHVRHLEKVYKHPIAVLADLPGPKFRLGVFNNDEATLETGKSFILDSSTQPGDASRVQLPHPEILSVLRPDDIVLMDDGKVKLRVTEVFADTTALSRGLGDIESVSHTASPGSSVVRAPAVRCTVLVGGRISSKKGVNVPSARLPISALSARDRELARTVASWGVDWIALSFVQSADDVHELRRELREAAEAAGSTTAQYAAEQNRSESHVDRGDASGAGCRIRPDISVMVKIEKPIALENIAEIVAAADGIMVARGDLGVELPNIAWLPRVQKRLVSLCREAGKPVVVATQMLESMMQAPLPTRAEVSDVANAVYDGADAVMLSGETAAGNAPARVACMQRLGIEGVENDPSFWELEDQRRQARLRAAERCASTGTSALRVPRASKGREQELEKGSELQGESRDRTEEILSRFLPGRREHLAFSEADRQGNTSGDTNQGTSKTEQGADESDAWVEHTAAAVARQSGAKAIVVFGENEALLQRLATLRPTAPVLAVTECVHTARRLKMYWGIYPVLLEAEDQANVESRARRPASLDDQLRLACEFARKEKFATESTDNLVVLGRLPGGRENGTNSDKTTARLTRPILTVCTLESGR",0.3,≥ 10,
"apyrase aqueous solution (D2-1): apyrase, SEQ ID NO: 7, derived from xenopus (protein, listed as Xenopus laevis) MKSPQVECKESMSPLRISVAGLPVLASMTKTADPRFRPRWRAILLSGIAVAFLLLLLCYHRSSGPRIQVANPHNWRMVHQVAGELYNDTYPLTPPLRTPEGLRYHIAIIADLDTDSRSAKANTWVSYLKRGYLTLSSSGDHVAVEWEKEDIVLETHLAEKGRGMELSELIVFNGKLYSVDDRTGVVYRIEGSKAVPWVILTDGDGTVGKGFKAEWLAVKDEQLYVGGLGKEWTTTSGVVLNENPEWVKVIGPRGDTQHHNWVSNYNQLRSAAGIQPPGYLIHESAAWSDSLKSWFFLPRRASQEQYSEKEDEKRGSNILLRATPDFSDIKMSHVGTLNPTHGFSSFKFIPGTDDQIIVALKSEEDNGKVATYITAFTLDGRILLPETKVGNVKYEGIEFI",0.3,,≥ 10
"nucleoside diphosphate kinase aqueous solution (D4-1-2): nucleoside diphosphate kinase, SEQ ID NO: 8, derived from rat pancreas (protein, Rat pancreas) LSGIAVAFLLLLLCYHRSSGPRIQVANPHNWRMVHQVAGELYNDTYPLTPPLRTPEGLRYHIAIIADLDTDSRSAKANTWVSYLKRGYLTLSSSGDHVAVEWEKEDIVLETHLAEKGRGMELSELIVFNGKLYSVDDRTGVVYRIEGSKAVPWVILTDGDGTVGKGFKAEWLAVKDEQLYVGGLGKEWTTTSGVVLNENPEWVKVIGPRGDTQHHNWVSNYNQLRSAAGIQPPGYLIHESAAWSDSLKSWFFLPRRASQEQYSEKEDEKRGSNILLRATPDFSDIKMSHVGTLNPTHGFSSFKFIPGTDDQIIVALKSEEDNGKVATYITAFTLDGRILLPETKVGNVKYEGIEFI",0.3,≥ 10,
"nucleotidase aqueous solution (D3-1): nucleotidase, SEQ ID NO: 5, derived from Escherichia coli (protein, listed as Escherichia coli) MKQSHFFAHLSRLKLINRWPLMRNVRTENVSEHSLQVAMVAHALAAIKNRKFGGNVNAERIALLAMYHDASEVLTGDLPTPVKYFNSQIAQEYKAIEKIAQQKLVDMVPEELRDIFAPLIDEHAYSDEEKSLVKQADALCAYLKCLEELAAGNNEFLLAKTRLEATLEARRSQEMDYFMEIFVPSFHLSLDEISQDSPL",0.3,,≥ 10
"ribonucleotide diphosphate reductase aqueous solution (D6-1): ribonucleotide diphosphate reductase, SEQ ID NO: 3, derived from Corynebacterium glutamicus (protein, listed as Corynebacterium glutamicum) MAADSDLSVHDAYLKEHVAPVKAINWNSIPDSKDLEVWDRLTGNFWLPEKVPVSNDIKSWGTLNEVEKAATMRVFTGLTLLDTIQGTVGAISLLPDADSLHEEAVLTNIAFMESVHAKSYSNIFMTLASTAEINDAFRWSEENENLQRKAKIILSYYEGDDPLKRKIASVILESFLFYSGFYLPMYWSSHSKLTNTADVIRLIIRDEAVHGYYIGYKYQKAVAKETPERQEELKEYTFDLLYDLYDNETQYSEDLYDDLGWTEDVKRFLRYIANKALNNLGYEGLFPADETKVSPNILSALSPNADENHDFFSGSGSSYVIGKAENTEDDDWDF",0.3,,≥ 10
